# Reference: PMC8614764, “Sulfane Sulfur Is a Strong Inducer of the Multiple Antibiotic Resistance Regulator MarR in Escherichia coli” (Antioxidants, 2021)
# T1: MarR (Escherichia coli MG1655) (UniProt P27245)
# T1 sequence: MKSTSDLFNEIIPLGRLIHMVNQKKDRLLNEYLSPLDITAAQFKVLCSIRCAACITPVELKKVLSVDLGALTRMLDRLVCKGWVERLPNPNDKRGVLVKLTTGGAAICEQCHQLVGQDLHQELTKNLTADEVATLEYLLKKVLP
# T2: MarR-5XS C47S;C51S;C54S;C108S;C111S (Escherichia coli MG1655) (UniProt P27245)
# T2 sequence: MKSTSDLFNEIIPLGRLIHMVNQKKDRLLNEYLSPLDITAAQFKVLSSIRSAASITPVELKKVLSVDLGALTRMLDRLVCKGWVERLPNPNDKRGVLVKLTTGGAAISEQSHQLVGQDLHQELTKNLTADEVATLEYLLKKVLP
# B1: H2Sn-treated MarR-5XS (protein)
# chain: MKSTSDLFNEIIPLGRLIHMVNQKKDRLLNEYLSPLDITAAQFKVLSSIRSAASITPVELKKVLSVDLGALTRMLDRLVCKGWVERLPNPNDKRGVLVKLTTGGAAISEQSHQLVGQDLHQELTKNLTADEVATLEYLLKKVLP
# B2: MarR-5XS (untreated) (natural protein)
# chain: MKSTSDLFNEIIPLGRLIHMVNQKKDRLLNEYLSPLDITAAQFKVLSSIRSAASITPVELKKVLSVDLGALTRMLDRLVCKGWVERLPNPNDKRGVLVKLTTGGAAISEQSHQLVGQDLHQELTKNLTADEVATLEYLLKKVLP
# notes: Multiple antibiotic resistance regulator MarR of E. coli MG1655, gene b1530; primers run from the GTG start codon to the stop codon; all Cys except Cys80 changed to Ser; Made from pET30a; Primarily a dimer by SEC; also called MarR/5CS; MarR-5CS; source: E. coli BL21(DE3), purified (Ni-NTA, PD-10 desalting) under anaerobic conditions
# B3: H2Sn-treated MarR-5XS (natural protein)
# chain: MKSTSDLFNEIIPLGRLIHMVNQKKDRLLNEYLSPLDITAAQFKVLSSIRSAASITPVELKKVLSVDLGALTRMLDRLVCKGWVERLPNPNDKRGVLVKLTTGGAAISEQSHQLVGQDLHQELTKNLTADEVATLEYLLKKVLP
# modifications: Cys80 disulfide between chains after H2Sn treatment (disulfide-stabilized tetramer)
# notes: Multiple antibiotic resistance regulator MarR of E. coli MG1655, gene b1530; primers run from the GTG start codon to the stop codon; all Cys except Cys80 changed to Ser; treated with polysulfide (H2Sn); The treated sample is a mixture of dimer, tetramer and possibly multimers by SEC; the tetramer is the main species; The disulfide and trisulfide at Cys80 were identified by LC-MS/MS on treated …
# B4: H2Sn-treated MarR (natural protein)
# chain: MKSTSDLFNEIIPLGRLIHMVNQKKDRLLNEYLSPLDITAAQFKVLCSIRCAACITPVELKKVLSVDLGALTRMLDRLVCKGWVERLPNPNDKRGVLVKLTTGGAAICEQCHQLVGQDLHQELTKNLTADEVATLEYLLKKVLP
# modifications: Cys80 linked to Cys80 of another chain by a disulfide (Cys80-Cys80) or trisulfide (Cys80-S-Cys80) bond
# notes: Multiple antibiotic resistance regulator MarR of E. coli MG1655, gene b1530; primers run from the GTG start codon to the stop codon; treated with polysulfide (H2Sn); SEC was done only with MarR-5XS; The vector pET30a may add further residues between the His tag and MarR (surmised from the primer); also called pET30-MarR product; source: E. coli BL21, purified (Ni-NTA) in an anaerobic chamber, …
# Tests used:
# [1] = target: T1, MarR (Escherichia coli MG1655); experiment: EMSA; settings: EMSA: 10 mM Tris, 50 mM KCl, 5% glycerin, pH 8.0, 25 C, 30 min, 20 nM probe, 15 uL; 6% native PAGE
# [2] = target: T2, MarR-5XS C47S;C51S;C54S;C108S;C111S (Escherichia coli MG1655); experiment: EMSA; settings: EMSA: 10 mM Tris, 50 mM KCl, 5% glycerin, pH 8.0, 25 C, 30 min, 20 nM probe, 15 uL; 6% native PAGE
# [3] = target: P27245; experiment: SEC; Superdex-200, 10 mM Tris-HCl pH 8.0, 100 mM NaCl; MarR-5XS (25 µM) after 400 µM H2Sn for 20 min; dimers to tetramer; mass calibrated with BSA (67 kDa) and T7 RNA polymerase (99 kDa)
# [4] = target: the molecule itself; experiment: SEC; Superdex-200, 10 mM Tris-HCl pH 8.0, 100 mM NaCl; untreated MarR-5XS, 25 µM; monomers to dimer
# [5] = target: the molecule itself; experiment: SEC; Superdex-200, 10 mM Tris-HCl pH 8.0, 100 mM NaCl; MarR-5XS (25 µM) after 400 µM H2Sn for 20 min; dimers to tetramer; mass calibrated with BSA (67 kDa) and T7 RNA polymerase (99 kDa)
# [6] = target: the molecule itself; experiment: cross-linking; LC-MS/MS of tryptic peptides of MarR reacted with 10-fold H2Sn, anaerobic, room temperature, 30 min; free thiols blocked with iodoacetamide; disulfide- and trisulfide-linked Cys80 peptides identified
molecule,measurement,setting,value
CATCGCATTGAACAAAACTTGAACCGATTTAGCAAAACGTGGCATCGGTCAATTCATTCATTTGACTTATACTTGCCTGGGCAATATTATCCCCTGCAAC (double strand) [marRAB promoter EMSA probe],binding,[1],binds
same,binding,[2],binds
B1,percent of protein as dimer (SEC peak area),[3],"the dimer, tetramer, and multimer represented 37.4%, 54.1%, and 8.5%"
same,percent of protein as multimer (SEC peak area),[3],"the dimer, tetramer, and multimer represented 37.4%, 54.1%, and 8.5%"
same,percent of protein as tetramer (SEC peak area),[3],"the dimer, tetramer, and multimer represented 37.4%, 54.1%, and 8.5%"
B2,stoichiometry N,[4],2
B3,stoichiometry N,[5],4
B4,binding result,[6],binds
